What was measured:
[1] = assay type: biochemical
Experimental: To analyze these engineered proteins for activity in higher temperatures, the in vitro enzyme assay in Example 1 was modified to specify pre-heating all of the assay components to the desired temperature for 5 minutes before combining the components and then maintaining the reaction at the desired temperature for the duration of the reaction. To normalize the assay measurements, quizalofop-P was used as the substrate for the reaction and enzyme activity was normalized based on the 25° C. readings. Using these parameters, the temperature at which the enzyme activity was half of maximum (T1/2) was calculated. The T1/2 for MON-HT55 was calculated to be 29° C., and the T1/2 for wild-type RdpA was calculated to be 38° C. (FIG. 2A).
Enzyme activity over a range of temperatures was analyzed in-depth for MON-HT1, MON-HT2, MON-HT7, and MON-HT8. These assays were conducted as described above. Quizalofop-P or 2,4-D was used as the substrate for these reactions and activity was normalized based on the activity of the wild-type enzyme at 25° C. The activity curves obtained are presented in FIG. 2B (with quizalofop-P as the substrate) and FIG. 2C (with 2,4-D as the substrate). Using quizalofop-P as the substrate, MON-HT55 was the most temperature sensitive, with a T1/2 of 29° C. […] MON-HTI was slightly less temperature sensitive, with a T1/2 about 1° C. higher than the wild-type enzyme.

F1 hybrid maize plants [2] = test: efficacy field trial with segregating F1 hybrid plants; assay type: in vivo; conditions: for % Injury from V4 2,4-D / % Injury from V8 2,4-D: 2,4-D amine 2× at VE-V2 (plus quizalofop-P 0.5×), V4, V8; for % Injury from V4 Quizalofop / % Injury from V8 Quizalofop: quizalofop-P 2× at VE-V2, V4, V8
Experimental: Ten unique engineered proteins optimized for activity at higher temperatures were selected for maize transformation and analysis in plants. DNA constructs were produced for expressing these engineered proteins with codon usage optimized for monocot expression using methods known to those skilled in the art. Enhancers, promoters, leaders, introns, CTPs, and 3′UTRs were tested in various combinations with the engineered proteins in these DNA constructs. The DNA constructs were used to transform immature maize (LH244) embryos with these vectors using Agrobacterium tumifaciens and standard methods known in the art. Regenerated R0 transgenic plantlets were grown in the green house.
Transgenic R0 maize plants were screened by the application of quizalofop-P (2×) plus 2,4-D (2×) at 7 to 10 days following transplant into plugs (generally corresponding to V3-V4 growth stage). All constructs tested produced plants containing unique events that passed the RO screen. The R0 plants were selfed to generate R1 homozygous seed and the R0 was also used as the male to cross with inbred plants containing maize event MON89034 to generate segregating F1 hybrid seed for efficacy field trials.
An efficacy field trial was conducted with segregating F1 hybrid plants, with 50% hemizygous and 50% null for the transgene. Tolerance to quizalofop-P (2×) plus 2,4-D (2×) was assessed using two herbicide application regimens: (1) quizalofop-P (Assure II) at 0.16 lb ai/acre (2×) plus 0.25% v/v non-ionic surfactant (NIS) applied at VE-V2 growth stage followed by the same at V4 growth stage followed by the same at V8 growth stage and (2) 2,4-D amine at 2 lb ae/acre (2×) plus quizalofop-P at 0.04 lb ai/acre (0.5×) plus 0.25% v/v NIS applied at VE-V2 growth stage followed by 2,4-D amine at 2 lb ae/acre (2×) plus 0.25% v/v NIS applied at V4 growth stage followed by the same at V8 growth stage. The 50% of the plants that were null for transgene were removed by the first quizalofop-P application at VE-V2 growth stage. Plots were visually rated 10-14 days after application for crop injury on a scale of 0 to 100 with “0” being none and “100” being complete crop destruction. […] The percentage injury rating with 2× application of 2,4-D at V8 growth stage ranged from a high of 40% to a low of 0. Similarly, the percentage injury rating with 2× application of quizalofop-P at V8 growth stage ranged from a high of 90% to a low of 0. Variation in injury rating between plants expressing the same protein is likely due to variations in construct design or transgene insertion location.

F1 hybrid maize plants [3] = test: efficacy field trial for quizalofop-P tolerance and clethodim sensitivity; assay type: in vivo; conditions: scale 0 to 100; for average injury rating, V4 Growth Stage, 4x Quizalofop / average injury rating, V8 Growth Stage, 4x Quizalofop: 0.32 lb ai/acre at VE-V2, V4, V8; for average injury rating, V4 Growth Stage, 4x Quizalofop / average injury rating, V8 Growth Stage, 4x Quizalofop / average injury rating, V4 Growth Stage, 8x Quizalofop / average injury rating, V8 Growth Stage, 8x Quizalofop / average injury rating, V4 Growth Stage, 16x Quizalofop / average injury rating, V8 Growth Stage, 16x Quizalofop: with CTP unless label says no CTP; for average injury rating, V4 Growth Stage, 8x Quizalofop / average injury rating, V8 Growth Stage, 8x Quizalofop: 0.64 lb ai/acre at VE-V2, V4, V8; for average injury rating, V4 Growth Stage, 16x Quizalofop / average injury rating, V8 Growth Stage, 16x Quizalofop: 1.28 lb ai/acre at VE-V2, V4, V8; for average injury rating, V8 Growth Stage, 1x Clethodim: clethodim 0.25 lb ai/acre at V8, volunteer control
Experimental: Separate trait efficacy field trials for quizalofop-P and 2,4-D were conducted at two locations cach with F1 hybrid transgenic plants produced by crossing an inbred plant containing maize event MON89034 with an R1 plant containing MON-HT55 (with a CTP), MON-HTI (with or without a CTP), MON-HT2 (with or without a CTP), MON-HT3 (with a CTP), MON-HT4 (with a CTP), MON-HT5 (with a CTP), MON-HT6 (with a CTP), or MON-HT7 (with a CTP). Transgenic F1 hybrid plants containing maize events NK603×MON89034 were used for comparison as a control.
In the efficacy field trial for quizalofop-P tolerance and clethodim sensitivity, one of four herbicide treatments was used: (1) quizalofop-P (Assure II) at 0.32 lb ai/acre (4×) plus 0.25% v/v non-ionic surfactant (NIS) applied at VE-V2 growth stage followed by the same at V4 growth stage followed by the same at V8 growth stage; (2) quizalofop-P at 0.64 lb ai/acre (8×) plus 0.25% v/v NIS applied at VE to V2 growth stage followed by the same at V4 growth stage followed by the same at V8 growth stage; (3) quizalofop-P at 1.28 lb ai/acre (16×) plus 0.25% v/v NIS applied at VE to V2 growth stage followed by the same at V4 growth stage followed by the same at V8growth stage; or (4) clethodim at 0.25 lb ai/acre (1×) plus 0.25% v/v NIS applied at V8 growth stage. Plots were visually rated 10-14 days after application for crop injury on a scale of 0 to 100with “0” being none and “100” being complete crop destruction. Tables 14 and 15 show the average injury ratings after herbicide application at V4 or V8 growth stage, respectively.

B1: MON-HT1: engineered oxygenase protein, amino acid sequence SEQ ID NO:14 (protein)
chain: MHAALTPLTNKYRFIDVQPLTGVLGAEITGVDLREPLDDSTWNEILDAFHTYQVIYFPGQAITNEQHIAFSRRFGPVDPVPILKSIEGYPEVQMIRREANESSRFIGDDWHTDSTFLDAPPAAVVMRAIEVPEYGGDTGFLSMYSAWETLSPTMQATIEGLNVVHSATKVFGSLYQATNWRFSNTSVKVMDVDAGDRETVHPLVVTHPVTGRRALYCNQVYCQKIQGMTDAESKSLLQFLYEHATKFDFTCRVRWKKDQVLVWDNLCTMHRAVPDYAGKFRYLTRTTVAGDKPSR
T1/2, temperature at which the enzyme activity was half of maximum [1]: 42 °C | T1/2 higher than the wild-type enzyme [1]: about 1 °C | % Injury from V4 2,4-D (F1 hybrid maize plants [2]; CTP A): 7.5% | % Injury from V8 2,4-D (F1 hybrid maize plants [2]; CTP A): 5.83% | % Injury from V4 Quizalofop (F1 hybrid maize plants [2]; CTP A): 8.33% | % Injury from V8 Quizalofop (F1 hybrid maize plants [2]; CTP A): 8.33% | % Injury from V4 2,4-D (F1 hybrid maize plants [2]; CTP B): 10% | % Injury from V8 2,4-D (F1 hybrid maize plants [2]; CTP B): 10% | % Injury from V4 Quizalofop (F1 hybrid maize plants [2]; CTP B): 7.5% | % Injury from V8 Quizalofop (F1 hybrid maize plants [2]; CTP B): 8.75% | % Injury from V4 2,4-D (F1 hybrid maize plants [2]; CTP C): 14.09% | % Injury from V8 2,4-D (F1 hybrid maize plants [2]; CTP C): 11.36% | % Injury from V4 Quizalofop (F1 hybrid maize plants [2]; CTP C): 0.45% | % Injury from V8 Quizalofop (F1 hybrid maize plants [2]; CTP C): 0.91% | % Injury from V4 2,4-D (F1 hybrid maize plants [2]; CTP None): 12.86% | % Injury from V8 2,4-D (F1 hybrid maize plants [2]; CTP None): 10.71% | % Injury from V4 Quizalofop (F1 hybrid maize plants [2]; CTP None): 7.14% | % Injury from V8 Quizalofop (F1 hybrid maize plants [2]; CTP None): 7.86% | average injury rating, V4 Growth Stage, 4x Quizalofop (F1 hybrid maize plants [3]): 0.0 | average injury rating, V8 Growth Stage, 4x Quizalofop (F1 hybrid maize plants [3]): 2.0 | average injury rating, V4 Growth Stage, 4x Quizalofop (F1 hybrid maize plants [3]; listed as MON-HT1 (no CTP)): 5.8 | average injury rating, V8 Growth Stage, 4x Quizalofop (F1 hybrid maize plants [3]; listed as MON-HT1 (no CTP)): 3.3 | average injury rating, V4 Growth Stage, 8x Quizalofop (F1 hybrid maize plants [3]): 0.8 | average injury rating, V8 Growth Stage, 8x Quizalofop (F1 hybrid maize plants [3]): 2.0 | average injury rating, V4 Growth Stage, 8x Quizalofop (F1 hybrid maize plants [3]; listed as MON-HT1 (no CTP)): 11.3 | average injury rating, V8 Growth Stage, 8x Quizalofop (F1 hybrid maize plants [3]; listed as MON-HT1 (no CTP)): 7.5 | average injury rating, V4 Growth Stage, 16x Quizalofop (F1 hybrid maize plants [3]): 4.5 | average injury rating, V8 Growth Stage, 16x Quizalofop (F1 hybrid maize plants [3]): 5.5 | average injury rating, V4 Growth Stage, 16x Quizalofop (F1 hybrid maize plants [3]; listed as MON-HT1 (no CTP)): 18.8 | average injury rating, V8 Growth Stage, 16x Quizalofop (F1 hybrid maize plants [3]; listed as MON-HT1 (no CTP)): 16.3 | average injury rating, V8 Growth Stage, 1x Clethodim (F1 hybrid maize plants [3]): 93.3 | average injury rating, V8 Growth Stage, 1x Clethodim (F1 hybrid maize plants [3]; listed as MON-HT1 (no CTP)): 94.5
